From PMC9119680

What was measured:
Assay in all cases: Co-IP with immunoblot quantification
SNAPIN = SNAPIN (UniProt Q9Z266); conditions: read off a plot
PALLIDIN = PALLIDIN (UniProt Q9R0C0); conditions: uninfected cells cultured overnight; IP: BLOS1; parent: est. 100; read off a plot
BLOS2 = BLOS2 (UniProt Q9CWG9); conditions: uninfected cells cultured overnight; IP: BLOS1; parent: est. 100; read off a plot
KXD1 = KXD1 (UniProt Q80XH1); conditions: uninfected cells cultured overnight; IP: BLOS1; parent: est. 100; read off a plot
UniProt Q80XH1, sequence (Q80XH1 whole entry): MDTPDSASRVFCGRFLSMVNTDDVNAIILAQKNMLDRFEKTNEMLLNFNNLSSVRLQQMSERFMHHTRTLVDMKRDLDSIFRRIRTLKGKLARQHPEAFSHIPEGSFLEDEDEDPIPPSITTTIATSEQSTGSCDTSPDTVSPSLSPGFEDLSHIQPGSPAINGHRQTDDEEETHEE

UniProt Q9Z266, sequence (Q9Z266 whole entry): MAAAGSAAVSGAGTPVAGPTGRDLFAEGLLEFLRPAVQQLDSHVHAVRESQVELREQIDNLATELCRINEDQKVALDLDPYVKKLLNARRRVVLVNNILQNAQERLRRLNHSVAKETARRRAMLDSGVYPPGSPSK
UniProt Q9CWG9, sequence (Q9CWG9 whole entry): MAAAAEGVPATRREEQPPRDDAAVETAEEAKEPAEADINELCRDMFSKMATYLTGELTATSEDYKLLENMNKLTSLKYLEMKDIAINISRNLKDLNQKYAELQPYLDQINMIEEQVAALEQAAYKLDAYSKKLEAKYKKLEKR
UniProt Q9R0C0, sequence (Q9R0C0 whole entry): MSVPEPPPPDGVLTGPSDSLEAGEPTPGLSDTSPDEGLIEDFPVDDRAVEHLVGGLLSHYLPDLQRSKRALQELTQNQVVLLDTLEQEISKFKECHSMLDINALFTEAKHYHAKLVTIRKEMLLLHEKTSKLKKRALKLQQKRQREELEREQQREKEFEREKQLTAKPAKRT

Substance: BLOS1 [biogenesis of lysosome-related organelles complex-1 (BLOC-1) subunit 1] (from UniProt O55102) mBloc1s1 (first XAT hexapeptide-repeat motif EALDVH changed to EVVDH or EVDH)
- response (SNAPIN; parent: est. 0.67): 0.07
- response (SNAPIN; parent: est. 1.0): 0.18
- percent of parent (SNAPIN; uninfected cells cultured overnight, IP: BLOS1, parent: est. 100): 10%
- percent of parent (PALLIDIN): 22%
- percent of parent (BLOS2): 5%
- percent of parent (KXD1): 10%
